The data set deals with the molecule itself. Kind of data set: atomic force microscopy; film formed from 1.5 uM FUS LC at the air/PBS interface (pH 7.4), 5 h, deposited on a Si wafer and dried; 20 ± 1 °C.

The text below walks through data of article PMC10396963, “Fibril formation and ordering of disordered FUS LC driven by hydrophobic interactions” (Nature Chemistry, 2023).

B1: FUS low-complexity domain (FUS LC, 1–163 amino acids) (domain or fragment, human, UniProt P35637 1-163, looked up)
chain: MASNDYTQQATQSYGAYPTQPGQGYSQQSSQPYGQQSYSGYSQSTDTSGYGQSSYSSYGQSQNTGYGTQSTPQGYGSTGGYGSSQSSQSSYGQQSSYPGYGQQPAPSSTSGSYGSSSQSSSYGQPQSGSYSQQPSYGGQQQSYGQQQSYNPPQGYGQQNQYNS
notes: Human FUS (fused in sarcoma), N-terminal QGSY-rich low-complexity domain, amino-acid residues 1-163; For FRAP 5% of the protein carried Cy3 (NHS ester); the AFM and BAM samples were unlabelled; also called fused in sarcoma low-complexity domain; wild-type FUS LC; source: E. coli, purified (solubilised in 8 M urea, Ni-NTA, cleaved with tobacco etch virus protease, exchanged to CAPS pH 11)
For the protein B1, the binding result is listed as “binds”.
